Measured values taken from paper PMC4963994, “Recombinant expression of Chlamydia trachomatis major outer membrane protein in E. Coli outer membrane as a substrate for vaccine research” (BMC Microbiology, 2016).

Target: the molecule itself
Experiment: SDS-PAGE and western blot; purified MOMP in SDS loading buffer, all samples heated and reduced; NuPAGE gel; blot with anti-CtE EB mouse sera; SDS-resistant dimeric and oligomeric forms

B1: recombinant C. trachomatis Serovar E major outer membrane protein, expressed in the E. coli outer membrane with a PelB leader and purified (natural protein)
chain: LPVGNPAEPSLMIDGILWEGFGGDPCDPCTTWCDAISMRMGYYGDFVFDRVLKTDVNKEFQMGDKPTSTTGNATAPTTLTARENPAYGRHMQDAEMFTNAACMALNIWDRFDVFCTLGASSGYLKGNSASFNLVGLFGDNENQSTVKTNSVPNMSLDQSVVELYTDTAFSWSVGARAALWECGCATLGASFQYAQSKPKVEELNVLCNAAEFTINKPKGYVGQEFPLALIAGTDAATGTKDASIDYHEWQASLALSYRLNMFTPYIGVKWSRASFDADTIRIAQPKSATAIFDTTTLNPTIAGAGDVKASAEGQLGDTMQIVSLQLNKMKSRKSCGIAVGTTIVDADKYAVTVETRLIDERAAHVNAQFRF
notes: Major outer membrane protein (MOMP), C. trachomatis strain E/12-94 Serovar E, ORF O175_03780; also called rCtE-MOMP; rMOMP
binding result: binds
